Test results from patent publication US20220387557A1 (OXFORD UNIVERSITY INNOVATION, published 2022).

Columns and labels:
[1] = target: T1, Fc tagged human TNFR1 (Sino Biological) (human, UniProt P19438 22-211, limits assumed); assay: SPR, Biacore T200 single cycle kinetics, receptor-Fc captured on Protein A chip, TNF 1.67-15 nM
T1 construct: Bought reagent; also called hTNFR1; hTNFR1-Fc; not shown: Fc tag of the bought protein
T1 sequence (looked up): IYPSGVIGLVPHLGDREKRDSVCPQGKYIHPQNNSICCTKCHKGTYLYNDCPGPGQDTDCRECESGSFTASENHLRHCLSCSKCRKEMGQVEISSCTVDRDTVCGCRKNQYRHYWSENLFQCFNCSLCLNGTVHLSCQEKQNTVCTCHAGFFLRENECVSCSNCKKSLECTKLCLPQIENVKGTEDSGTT
Description: (§1) Single cycle kinetic analysis was performed using a Biacore T200 (serial no. 1909913) running Biacore T200 Evaluation Software V2.0.1 (Uppsala, Sweden). All experiments were run at 25° C. with HBS-P+ running buffer (pH 7.4) (GE Healthcare, Little Chalfont, UK).
(§2) Due to the limit in the number of available flow cells for analysis (three Fc per analysis, Fc2, Fc3 and Fc4, with Fc1 always being used as blank reference for non-specific subtraction), receptor binding was assessed in two separate overlapping runs using either: hTNFR1 (Fc2), hTNFR2 (Fc3) and mTNFR1 (Fc4), or; hTNFR1 (Fc2), […] and mTNFR2 (Fc4). Receptors were diluted in running buffer to a concentration of ˜4 μg/mL and at the start of each cycle loaded onto Fc2, Fc3 and Fc4 of a Protein A chip (GE Healthcare, Little Chalfont, UK) at a flow rate of 10 μL/min to give an RU of 40-100. The surface was then allowed to stabilise. Single cycle kinetic data was obtained at a flow rate of 45 μL/min. […] The association phase for the three injections of increasing concentrations of TNF was monitored for 240 seconds and a single dissociation phase was measured for 2700 seconds following the last injection of TNF. Regeneration of the Protein A surface was conducted using 10 mM glycine-HCl pH 1.5. The signal from the reference channel Fc1 (no receptor) was subtracted from that of Fc2, Fc3 and Fc4 to correct for differences in non-specific binding to a reference surface.

[2] = target: T2, Fc tagged mouse TNFR1 (Sino Biological) (mouse, UniProt P25118 22-212, limits assumed); assay: as above
T2 construct: Bought reagent; also called mTNFR1; mTNFR1-Fc; not shown: Fc tag of the bought protein
T2 sequence (looked up): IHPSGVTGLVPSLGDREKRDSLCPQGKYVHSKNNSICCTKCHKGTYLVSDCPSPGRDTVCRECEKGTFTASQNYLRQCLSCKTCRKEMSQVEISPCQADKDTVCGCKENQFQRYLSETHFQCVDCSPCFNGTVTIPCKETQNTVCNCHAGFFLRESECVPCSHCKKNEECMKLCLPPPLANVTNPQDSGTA
Description: as §1, §2

[3] = target: T3, Fc tagged human TNFR2 (Sino Biological) (human, UniProt P20333 23-257); assay: as above
T3 construct: Bought reagent; also called hTNFR2; hTNFR2-Fc; not shown: Fc tag of the bought protein
T3 sequence (looked up): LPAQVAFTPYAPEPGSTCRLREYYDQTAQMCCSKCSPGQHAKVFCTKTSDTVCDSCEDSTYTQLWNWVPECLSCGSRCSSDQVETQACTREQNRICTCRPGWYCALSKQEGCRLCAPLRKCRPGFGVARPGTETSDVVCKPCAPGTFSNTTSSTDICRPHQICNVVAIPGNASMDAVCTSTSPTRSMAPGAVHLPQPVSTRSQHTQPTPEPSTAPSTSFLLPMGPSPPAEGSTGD
Description: as §1, §2

[4] = target: T1, Fc tagged human TNFR1 (Sino Biological); assay: SPR, Biacore T200 multi cycle kinetics, receptor-Fc captured on Protein A chip, TNF 1.25-40 nM, 1:1 model
Description: (§3) Multi cycle kinetics analysis of binding to hTNFR1, hTNFR2, mTNFR1 and mTNFR2 was performed on the 10 lead variants using a Biacore T200 (serial no. 1909913) instrument running Biacore T200 Evaluation Software V3.0.1 (Uppsala, Sweden) to characterise further the binding to these receptors.
(§4) As with the single cycle kinetics, receptor binding was assessed in two separate experiments. In the first set of experiments binding to hTNFR1 (Fc2), hTNFR2 (Fc3) and mTNFR1 (Fc4) was assessed. In the second set of experiments the extent of mTNF2 (Fc4) binding was assessed using hTNFR1 (Fc2) and hTNFR2 (Fc3) as controls. All receptors were diluted in running buffer to a concentration of ˜4 μg/mL and at the start of each cycle loaded onto Fc2, Fc3 and Fc4 of a Protein A CM5 chip and captured at a flow rate of 10 μL/min to give an RU of ˜40-100. The surface was then allowed to stabilise. All kinetic data was obtained using a flow rate of 75 μl/min to minimise any potential mass transfer effects. […] The association phase of TNF was monitored for 280 seconds and the dissociation phase was measured for 2100 seconds. […] Regeneration of the Protein A surface was conducted using two injections of 10 mM glycine-HCL pH 1.5 at the end of each cycle. The signal from the reference channel Fc1 was subtracted from that of Fc2, Fc3 and Fc4 to correct for differences in non-specific binding to a reference surface, and a global Rmax parameter was used in the 1-to-1 binding model.

[5] = target: T2, Fc tagged mouse TNFR1 (Sino Biological); assay: as above
Description: as §3, §4

[6] = target: T3, Fc tagged human TNFR2 (Sino Biological); assay: as above
Description: as §3, §4

- Kd [1]: 0.0164 nM
- Kd [2]: 0.0256 nM
- Kd [3]: 0.315 nM
- Kd [4]: 0.0216 nM
- Kd [5]: 0.177 nM
- Kd [6]: 0.407 nM
B1: TNF mutein B2 (ligand)
chain: VRSSSRTPSDKPVAHVVANPQAEGQLQWLNRRANALLANGVELRDNQLVVPSEGLYLIYSQVLFKGQGCPSTHVLLTHTISRITASYSGKVNLLSAIKSPCQRETPEGAEAKPWYEPIYLGGVFQLEKGDRLSAEINRPDYLDFAESGQVYFGIIAL
notes: Human TNF mutein, TASYSG at positions 84-89; not shown: C-terminal FLAG tag and His6 tag from vector pANT65
